Test results published in paper PMC2225407.

Target: MBP::FAX-1 (Caenorhabditis elegans) (UniProt G5EDJ0)
Assay: EMSA
Conditions: EMSA: 1.5 ug MBP::FAX-1, 4 ng 32P ds oligo, BSA, 30 min pre-incubation + 30 min on ice, 8% native PAGE, binding buffer salt and pH not given

UniProt G5EDJ0, sequence (G5EDJ0 whole entry): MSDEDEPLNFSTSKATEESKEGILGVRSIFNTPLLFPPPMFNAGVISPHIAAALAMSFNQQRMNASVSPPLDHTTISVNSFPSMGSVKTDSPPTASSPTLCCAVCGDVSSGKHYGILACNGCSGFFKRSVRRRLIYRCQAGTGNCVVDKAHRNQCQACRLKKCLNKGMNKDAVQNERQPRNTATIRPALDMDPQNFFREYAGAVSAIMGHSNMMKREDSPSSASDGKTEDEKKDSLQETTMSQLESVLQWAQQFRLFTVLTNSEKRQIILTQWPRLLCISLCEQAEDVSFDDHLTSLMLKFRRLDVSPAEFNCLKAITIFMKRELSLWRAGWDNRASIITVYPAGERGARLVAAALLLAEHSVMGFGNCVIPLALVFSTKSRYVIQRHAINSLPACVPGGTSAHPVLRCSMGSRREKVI

Sequence	binding signal (% probe bound)	binding signal (% probe bound) (supershift with anti-FAX-1 shown)
AATTACCCTTTTAAAAGTCAAAAGTCAACTTCCAA / TCGATTGGAAGTTGACTTTTGACTTTTAAAAGGGT [DR1A]	53.3	–
AATTACCCTTTTAAAAGTCAAAATTCAACTTCCAA / TCGATTGGAAGTTGAATTTTGACTTTTAAAAGGGT [HRSW]	11.7	–
AATTACCCTTTTAAAAGTCAAAATTTAACTTCCAA / TCGATTGGAAGTTAAATTTTGACTTTTAAAAGGGT [MON1]	2.8	–
AATTACCCTTTTAAAATTCAAAAGTCAACTTCCAA / TCGATTGGAAGTTGACTTTTGAATTTTAAAAGGGT [HRWS]	10.5	–
AATTACCCTTTTAAAATTCAAAATTCAACTTCCAA / TCGATTGGAAGTTGAATTTTGAATTTTAAAAGGGT [DRNC]	0.4	–
AATTACCCTTTTAAAATTTAAAAGTCAACTTCCAA / TCGATTGGAAGTTGACTTTTAAATTTTAAAAGGGT [MON2]	4.5	–
AATTACCCTTTTAAACGTCAAACGTCAACTTCCAA / TCGATTGGAAGTTGACGTTTGACGTTTAAAAGGGT [DR1C]	26.1	–
AATTACCCTTTTAAAGGTCAAAGGTCAACTTCCAA / TCGATTGGAAGTTGACCTTTGACCTTTAAAAGGGT [DR1G]	–	42.1
AATTACCCTTTTAAATGTCAAATGTCAACTTCCAA / TCGATTGGAAGTTGACATTTGACATTTAAAAGGGT [DR1T]	29.8	–
